Source: patent publication US20240262879

Tests used:
[1] = system: BI-051
[2] = system: Peptide 5 (GPLGVRG)
[3] = system: Peptide 8
[4] = system: BI-059
[5] = system: Peptide 10
[6] = system: BI-050
[7] = system: BI-054
[8] = system: BI-052
[9] = system: BI-055
[10] = system: Control (peptide of Table 12)

rmMMP2, sequence (chain, as listed by the source): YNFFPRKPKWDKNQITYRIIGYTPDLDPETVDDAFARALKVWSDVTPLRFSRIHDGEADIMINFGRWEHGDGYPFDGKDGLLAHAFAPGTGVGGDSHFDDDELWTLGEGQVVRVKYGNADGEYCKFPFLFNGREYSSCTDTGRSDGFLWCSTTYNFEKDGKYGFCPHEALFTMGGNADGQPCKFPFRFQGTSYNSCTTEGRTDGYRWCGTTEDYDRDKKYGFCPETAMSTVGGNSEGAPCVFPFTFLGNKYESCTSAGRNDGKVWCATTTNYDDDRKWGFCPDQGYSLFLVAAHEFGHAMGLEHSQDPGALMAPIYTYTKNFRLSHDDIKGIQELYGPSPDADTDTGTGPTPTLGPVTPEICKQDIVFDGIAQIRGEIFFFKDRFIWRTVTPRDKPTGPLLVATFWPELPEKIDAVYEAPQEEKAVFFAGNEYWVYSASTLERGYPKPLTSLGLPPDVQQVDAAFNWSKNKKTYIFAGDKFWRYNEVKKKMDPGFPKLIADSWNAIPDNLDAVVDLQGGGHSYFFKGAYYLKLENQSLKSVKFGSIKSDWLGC
rhMMP9, sequence (chain, as listed by the source): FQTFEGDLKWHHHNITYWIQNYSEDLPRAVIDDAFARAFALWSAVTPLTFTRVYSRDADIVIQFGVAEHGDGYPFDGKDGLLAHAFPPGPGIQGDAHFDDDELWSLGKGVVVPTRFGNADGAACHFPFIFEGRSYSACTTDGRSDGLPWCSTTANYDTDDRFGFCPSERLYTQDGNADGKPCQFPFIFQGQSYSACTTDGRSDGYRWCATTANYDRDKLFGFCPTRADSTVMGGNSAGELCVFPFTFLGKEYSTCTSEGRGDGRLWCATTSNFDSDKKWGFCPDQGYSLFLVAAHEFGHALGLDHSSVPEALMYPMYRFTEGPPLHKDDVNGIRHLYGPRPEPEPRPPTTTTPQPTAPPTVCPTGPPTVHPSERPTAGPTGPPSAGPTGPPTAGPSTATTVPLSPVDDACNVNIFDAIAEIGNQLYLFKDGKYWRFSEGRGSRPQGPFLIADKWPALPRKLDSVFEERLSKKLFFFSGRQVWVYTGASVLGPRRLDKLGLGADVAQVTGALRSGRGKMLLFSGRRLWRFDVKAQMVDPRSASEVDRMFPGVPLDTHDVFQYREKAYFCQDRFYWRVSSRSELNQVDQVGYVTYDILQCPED
rhMMP3, sequence (chain, as listed by the source): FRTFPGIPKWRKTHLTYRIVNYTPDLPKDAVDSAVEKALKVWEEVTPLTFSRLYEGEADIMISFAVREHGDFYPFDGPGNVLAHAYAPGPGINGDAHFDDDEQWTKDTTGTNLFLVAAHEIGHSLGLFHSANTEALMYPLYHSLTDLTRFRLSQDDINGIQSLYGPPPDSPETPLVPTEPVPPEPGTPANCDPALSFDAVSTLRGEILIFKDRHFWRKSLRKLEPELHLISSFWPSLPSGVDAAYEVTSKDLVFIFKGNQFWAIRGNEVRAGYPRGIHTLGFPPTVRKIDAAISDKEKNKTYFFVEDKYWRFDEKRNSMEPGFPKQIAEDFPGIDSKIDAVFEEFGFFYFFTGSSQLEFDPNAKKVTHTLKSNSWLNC
BI-059, sequence (chain, as listed by the source, chain 1 of 2): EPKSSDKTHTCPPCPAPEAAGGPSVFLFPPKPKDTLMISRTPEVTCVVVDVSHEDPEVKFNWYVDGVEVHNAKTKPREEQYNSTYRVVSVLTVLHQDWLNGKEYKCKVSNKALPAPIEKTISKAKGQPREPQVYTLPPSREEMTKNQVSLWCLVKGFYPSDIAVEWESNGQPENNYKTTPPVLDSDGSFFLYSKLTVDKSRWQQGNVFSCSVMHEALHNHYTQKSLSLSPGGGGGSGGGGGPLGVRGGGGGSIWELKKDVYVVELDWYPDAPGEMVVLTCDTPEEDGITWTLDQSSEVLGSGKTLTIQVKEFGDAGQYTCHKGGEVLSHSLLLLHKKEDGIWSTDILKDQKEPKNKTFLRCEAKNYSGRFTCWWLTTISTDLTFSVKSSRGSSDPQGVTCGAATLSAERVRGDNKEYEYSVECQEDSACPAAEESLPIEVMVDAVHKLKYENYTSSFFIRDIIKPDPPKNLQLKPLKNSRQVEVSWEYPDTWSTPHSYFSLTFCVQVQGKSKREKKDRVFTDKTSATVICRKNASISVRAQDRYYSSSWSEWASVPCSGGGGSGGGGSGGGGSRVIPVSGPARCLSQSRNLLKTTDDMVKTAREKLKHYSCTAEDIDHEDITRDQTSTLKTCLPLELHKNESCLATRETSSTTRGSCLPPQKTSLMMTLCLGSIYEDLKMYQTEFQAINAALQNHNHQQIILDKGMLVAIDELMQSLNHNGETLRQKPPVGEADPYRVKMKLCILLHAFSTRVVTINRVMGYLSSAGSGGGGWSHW
BI-059, sequence (chain, as listed by the source, chain 2 of 2): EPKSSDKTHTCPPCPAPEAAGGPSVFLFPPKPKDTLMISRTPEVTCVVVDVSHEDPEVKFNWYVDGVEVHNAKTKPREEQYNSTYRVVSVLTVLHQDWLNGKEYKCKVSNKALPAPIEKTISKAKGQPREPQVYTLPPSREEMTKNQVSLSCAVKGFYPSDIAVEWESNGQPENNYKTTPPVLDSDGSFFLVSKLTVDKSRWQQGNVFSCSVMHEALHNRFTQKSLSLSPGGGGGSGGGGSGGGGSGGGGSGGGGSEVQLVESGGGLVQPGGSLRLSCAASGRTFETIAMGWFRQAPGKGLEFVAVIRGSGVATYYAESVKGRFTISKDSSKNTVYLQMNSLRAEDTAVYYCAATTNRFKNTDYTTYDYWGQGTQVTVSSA
BI-054, sequence (chain, as listed by the source, chain 1 of 2): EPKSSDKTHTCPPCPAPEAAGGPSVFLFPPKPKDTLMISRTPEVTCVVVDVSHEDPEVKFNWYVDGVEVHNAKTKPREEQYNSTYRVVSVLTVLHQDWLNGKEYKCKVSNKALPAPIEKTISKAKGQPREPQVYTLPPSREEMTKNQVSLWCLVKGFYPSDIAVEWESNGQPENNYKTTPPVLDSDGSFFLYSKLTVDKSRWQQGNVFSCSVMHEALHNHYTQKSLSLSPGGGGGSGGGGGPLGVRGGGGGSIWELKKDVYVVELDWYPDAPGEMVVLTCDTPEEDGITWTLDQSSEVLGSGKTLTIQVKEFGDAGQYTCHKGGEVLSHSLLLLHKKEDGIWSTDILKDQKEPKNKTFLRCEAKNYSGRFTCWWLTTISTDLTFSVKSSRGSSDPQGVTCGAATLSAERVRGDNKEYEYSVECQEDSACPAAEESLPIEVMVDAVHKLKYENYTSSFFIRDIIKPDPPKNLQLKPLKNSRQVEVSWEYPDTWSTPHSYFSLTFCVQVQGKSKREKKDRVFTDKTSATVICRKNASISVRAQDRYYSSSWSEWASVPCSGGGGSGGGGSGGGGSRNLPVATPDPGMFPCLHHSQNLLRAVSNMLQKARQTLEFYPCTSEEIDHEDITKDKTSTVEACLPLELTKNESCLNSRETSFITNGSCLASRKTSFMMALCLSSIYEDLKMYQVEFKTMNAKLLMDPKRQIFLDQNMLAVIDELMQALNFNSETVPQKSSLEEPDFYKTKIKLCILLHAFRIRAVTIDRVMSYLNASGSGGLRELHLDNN
BI-054, sequence (chain, as listed by the source, chain 2 of 2): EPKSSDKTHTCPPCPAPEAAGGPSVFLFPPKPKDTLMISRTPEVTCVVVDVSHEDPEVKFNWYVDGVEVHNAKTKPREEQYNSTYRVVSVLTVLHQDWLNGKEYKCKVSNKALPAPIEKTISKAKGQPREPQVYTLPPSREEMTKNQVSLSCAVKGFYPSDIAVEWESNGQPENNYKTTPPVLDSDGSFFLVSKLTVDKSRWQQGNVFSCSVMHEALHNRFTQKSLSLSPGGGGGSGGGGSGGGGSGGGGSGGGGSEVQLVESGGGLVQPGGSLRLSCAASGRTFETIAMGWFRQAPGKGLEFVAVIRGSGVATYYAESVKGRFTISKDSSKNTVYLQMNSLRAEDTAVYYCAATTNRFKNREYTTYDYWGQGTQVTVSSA
BI-055, sequence (chain, as listed by the source, chain 1 of 2): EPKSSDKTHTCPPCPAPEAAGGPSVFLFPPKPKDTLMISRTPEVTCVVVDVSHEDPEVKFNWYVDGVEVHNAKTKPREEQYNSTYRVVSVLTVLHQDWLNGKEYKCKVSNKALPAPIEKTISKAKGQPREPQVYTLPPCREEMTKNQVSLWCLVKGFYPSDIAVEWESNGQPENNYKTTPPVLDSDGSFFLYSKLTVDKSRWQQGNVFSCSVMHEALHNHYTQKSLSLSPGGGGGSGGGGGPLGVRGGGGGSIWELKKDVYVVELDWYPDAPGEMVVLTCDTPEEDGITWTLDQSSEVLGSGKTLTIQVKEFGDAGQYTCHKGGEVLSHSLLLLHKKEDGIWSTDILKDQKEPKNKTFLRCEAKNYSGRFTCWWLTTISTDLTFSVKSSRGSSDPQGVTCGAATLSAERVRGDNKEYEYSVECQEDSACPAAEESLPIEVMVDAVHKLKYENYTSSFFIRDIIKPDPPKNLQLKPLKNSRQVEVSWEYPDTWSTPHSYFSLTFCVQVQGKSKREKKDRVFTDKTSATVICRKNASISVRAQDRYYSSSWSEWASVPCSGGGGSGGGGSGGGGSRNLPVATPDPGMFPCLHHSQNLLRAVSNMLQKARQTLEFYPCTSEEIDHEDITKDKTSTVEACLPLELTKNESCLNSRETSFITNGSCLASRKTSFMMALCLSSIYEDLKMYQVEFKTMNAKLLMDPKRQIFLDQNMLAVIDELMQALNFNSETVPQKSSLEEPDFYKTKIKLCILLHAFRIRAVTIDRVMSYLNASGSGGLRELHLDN
BI-055, sequence (chain, as listed by the source, chain 2 of 2): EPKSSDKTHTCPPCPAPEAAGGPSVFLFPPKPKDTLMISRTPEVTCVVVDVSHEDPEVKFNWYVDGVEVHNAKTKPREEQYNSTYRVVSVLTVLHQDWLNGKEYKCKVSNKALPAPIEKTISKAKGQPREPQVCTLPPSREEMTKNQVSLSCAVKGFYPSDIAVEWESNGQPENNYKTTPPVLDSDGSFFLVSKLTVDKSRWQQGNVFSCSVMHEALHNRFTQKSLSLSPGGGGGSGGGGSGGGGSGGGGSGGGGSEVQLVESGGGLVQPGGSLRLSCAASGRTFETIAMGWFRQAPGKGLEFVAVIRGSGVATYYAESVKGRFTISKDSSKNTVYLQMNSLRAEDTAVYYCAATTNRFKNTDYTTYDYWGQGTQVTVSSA

| Substance | cleavage shown by SDS-PAGE [1] | Specific Activity [2] [pmol/min/µg] | Specific Activity [3] [pmol/min/µg] | cleavage by Western blot [4] | Specific Activity [5] [pmol/min/µg] | cleavage shown by SDS-PAGE [6] | cleavage shown by SDS-PAGE [7] | cleavage shown by SDS-PAGE [8] | cleavage shown by SDS-PAGE [9] | Specific Activity [10] [pmol/min/µg] |
| --- | --- | --- | --- | --- | --- | --- | --- | --- | --- | --- |
| rhMMP9 | efficiently cleaved | 200 | 123 | efficiently cleaved with the human tumor lysates to the level comparable to activated MMP9 | 63.6 | efficiently cleaved | efficiently cleaved | efficiently cleaved | efficiently cleaved | 10 |
| rmMMP2 |  | 165 | 233 |  | 98.9 |  |  |  |  | 10 |
| rhMMP3 |  | 14.2 | 51.2 |  | 18.3 |  |  |  |  | 10 |
